Experimental data published in US8663616B2, “Enzymatic peracid generation for use in oral care products” (E I du Pont de Nemours and Company, priority 2010, dated 2014).

Tests used:
[1] = Peracetic acid generated in solution by C277S CXH fusions (Example 9); details: 0.5 μM enzyme, sarkosyl buffer, 100 mM triacetin, 100 mM H2O2, pH 7.2, 10 min, 37° C.
[2] = Peracetic acid from C277S CXH fusions exposed to hydroxyapatite discs (Example 9); details: no enzyme control subtracted
[3] = Peracetic acid generation from hydroxyapatite bound CE-7 perhydrolase fusions (Example 8); assay type: biochemical; details: hydroxyapatite particles exposed to 10 μM enzyme, washed; 100 mM triacetin, 100 mM H2O2, 30 min, 37° C.; no enzyme 30-118.8
Summary of the method: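 Enzyme (10 μM) bound to washed hydroxyapatite particles in 10 mM phosphate pH 7.2 for 30 min, washed three times, then given 100 mM triacetin plus 100 mM H2O2 in 100 mM phosphate pH 7.2, 30 min, 37 °C. Peracetic acid read by ABTS oxidation at 405 nm against standard curve; no-enzyme control.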

[4] = T. maritima C277S/C277T constructs, peracetic acid when bound to bovine enamel (Example 11); assay type: biochemical; details: bovine enamel exposed to 10 μM enzyme, 4 washes; 100 mM triacetin, 100 mM H2O2, 30 min, 37° C.; no enzyme 570
Description: (§1) The detection of peracetic acid followed the method described in Pinkernell et. al. (Analyst, 1997, 122, 567) using colorimetric detection of 2,2′-azino-bis(3-ethylbenzothiazoline(-6-sulfonate (ABTS) oxidation by peracetic acid. Following the formation of peracetic acid with the addition of triacetin and hydrogen peroxide, 90 μL of solution was added to 10 μL of 0.1 M H3PO4 in a well plate. 50 μL of 1 M acetic acid, 50 μL of 0.5 g/L ABTS and 50 μL of 0.002 g/L of KI was added. The solution was allowed to develop for 5 min. The absorbance of the solution was measured at 405 nm using a microplate reader. The peracetic acid concentration was calculated based on a standard curve developed simultaneously using peracetic acid reagent solution.
The perhydrolase enzymes were also assessed for binding to bovine enamel substrates. Enamel substrates were prepared as described in Example 2 and 3. Each enamel block was hydrated in water for overnight at room temperature (˜22° C.). The enamel blocks were then equilibrated with 10 mM potassium phosphate buffer, pH7.2, for 10 min. The enamel substrates were rinsed 3 times the buffer. The enamel wells were filled with 500 μL of 10 μM enzyme solutions which was prepared by diluting in 10 mM phosphate buffer. The samples were incubated for 30 min with slow shaking at 37° C. The non-binding enzyme was removed by washing 4 times with phosphate buffer. Then, each enamel block was embedded inside a putty filled 24-well plate, with only the enamel top surface exposed. The perhydrolase activity from enamel bound enzyme was measured as described in Example 8. 100 μL reaction mixtures (100 mM phosphate buffer, pH7.2 and 100 mM H2O2 and 100 mM triacetin) was added on top of the enamel and incubated for 30 min at 37° C. A 90 μL aliquot was removed for detection via ABTS oxidation as noted in Example 8. Each sample data point represents an average of 3 independent enamel blocks.

[5] = Peracetic acid generated in solution by CE-7 perhydrolase fusions (Example 8); assay type: biochemical; details: 0.5 μM enzyme, 100 mM triacetin, 100 mM H2O2, pH 7.2, 10 min, 37° C.; no enzyme 378.9
Description: as §1
Perhydrolase enzymes listed in Table 6 were assessed for solution activities. The method to measure the perhydrolase in solution activity was described in Example 7 by making a 500 μL solution containing 0.5 μM of enzyme, 100 mM triacetin, 100 mM H2O2 in 100 mM phosphate buffer, pH 7.2. The solution was mixed and incubated for 10 min at 37° C. A 10 μL aliquot was removed and diluted for detection as described in Example 7. Peracetic acid concentration was determined using a standard curve generated with a stock solution of peracetic acid (Aldrich). The experiment was also performed with no enzyme present as a control.

[6] = Two-step bleaching of coffee-tea stained bovine enamel (Example 16)
Description: Bovine enamel incisors were prepared as indicated in Example 1. The stained enamel blocks were embedded in a 48 well plate to protect the dentin backside from solution exposure. A solution of 10 μM of each enzyme in 10 mM phosphate buffer, pH 7.2 was prepared and 500 μL of solution was incubated with each enamel substrate for 60 min. The enzyme solution was removed and each well was rinsed three times with an additional 500 μL of buffer. The enamel blocks were placed in a fresh well for the whitening process. A solution with a final concentration of 40 mM triacetin, 100 mM H2O2 in 50 mM phosphate pH 7.2 buffer was freshly prepared and 500 μL of solution was added to each enamel block. Over the course of 1 hr the enamel blocks were removed and a color measurement was obtained and then each was returned to the solution in the well plate. The whiteness index for each sample was monitored.

Row | Peracetic acid (ppm) [3] [ppm] | PAA (ppm) [5] [ppm] | Molecule | Peracetic acid (ppm) In Solution [1] [ppm] | Peracetic acid (ppm) Exposed to Hydroxyapatite, Disc ([2]; disc-bound enzyme, 100 mM triacetin, 100 mM H2O2, 30 min, 37° C.) [ppm] | Peracetic acid (ppm) Exposed to Hydroxyapatite, Supernatant ([2]; unbound enzyme in supernatant after 10 μM enzyme on disc) [ppm] | Peracetic acid (ppm) On Enamel [4] [ppm] | retention on hydroxyapatite and enamel (in words) ([6]; 2-step process) | Whiteness Index 0 min ([6]; two-step: 10 μM enzyme 60 min, rinsed, then 40 mM triacetin, 100 mM H2O2, pH 7.2, before step 2) | ΔWI ([6]; two-step, 0 to 60 min) | Whiteness Index 5 min ([6]; two-step, 5 min in triacetin/H2O2) | Whiteness Index 15 min ([6]; two-step, 15 min in triacetin/H2O2) | Whiteness Index 30 min ([6]; two-step, 30 min in triacetin/H2O2) | Whiteness Index 45 min ([6]; two-step, 45 min in triacetin/H2O2) | Whiteness Index 60 min ([6]; two-step, 60 min in triacetin/H2O2)
1 | 4453.7 | 4877.2 | EZ-7: C277S-link1-DenP308-H6, SEQ ID NO: 429 (protein) MAFFDLPLEELKKYRPERYEEKDFDEFWEETLAESEKFPLDPVFERMESHLKTVEAYDVTFSGYRGQRIKGWLLVPKLEEEKLPCVVQYIGYNGGRGFPHDWLFWPSMGYICFVMDTRGQGSGWLKGDTPDYPEGPVDPQYPGFMTRGILDPRTYYYRRVFTDAVRAVEAAASFPQVDQERIVIAGGSQGGGIALAVSALSKKAKALLCDVPFLCHFRRAVQLVDTHPYAEITNFLKTHRDKEEIVFRTLSYFDGVNFAARAKIPALFSVGLMDNISPPSTVFAAYNYYAGPKEIRIYPYNNHEGGGSFQAVEQVKFLKKLFEKGGPGSGGAGSPGSAGGPGSTKPPRTPTANTSRPHHNFGSGGGGSPHHHHHH | 5471 | 2017 | 4864 | 1040 | – | – | – | – | – | – | – | –
2 | – | – | EZ-1: Thermotoga maritima acetyl xylan esterase variant C277S, untargeted perhydrolase, SEQ ID NO: 424 (protein, listed as Thermotoga maritima) MAFFDLPLEELKKYRPERYEEKDFDEFWEETLAESEKFPLDPVFERMESHLKTVEAYDVTFSGYRGQRIKGWLLVPKLEEEKLPCVVQYIGYNGGRGFPHDWLFWPSMGYICFVMDTRGQGSGWLKGDTPDYPEGPVDPQYPGFMTRGILDPRTYYYRRVFTDAVRAVEAAASFPQVDQERIVIAGGSQGGGIALAVSALSKKAKALLCDVPFLCHFRRAVQLVDTHPYAEITNFLKTHRDKEEIVFRTLSYFDGVNFAARAKIPALFSVGLMDNISPPSTVFAAYNYYAGPKEIRIYPYNNHEGGGSFQAVEQVKFLKKLFEKG | – | – | – | 628 | poor retention on hydroxyapatite and enamel | −152.7 | 56.6 | −126.2 | −138.9 | −144.8 | −107.3 | −96.1
